These results are taken from patent US20220331457A1 (TELIX INTERNATIONAL, published 2022).

The target of assay [1] is T1, human carbonic anhydrase IX (CAIX) (human, UniProt Q16790 38-414). The assay is described as follows: Biacore multicycle kinetic analysis (conclusion of Example 1).
Method: (§1) The purified antibodies were diluted to a concentration of 1 μg/ml in HBS-P+. […] Following capture, the surface was allowed to stabilise. Kinetic data was obtained using a flow rate of 30 μl/min to minimise any potential mass transfer effects. For the kinetics analysis, carbonic anhydrase IX (CAIX) was used. Multiple repeats of the blank (CAIX) and a repeat of a single concentration of the analyte were programmed into the kinetic run in order to check the stability of both the surface and analyte over the kinetic cycles. For kinetic analysis, a two-fold dilution range was selected from 50 nM to 0.078 nM CAIX. The association phase of CAIX was monitored for 280 seconds and the dissociation phase was monitored for 300 seconds. Regeneration of the Protein G surface was conducted using an injection of 10 mM glycine-HCL pH 1.5 followed by an injection of 10 mM glycine-HCL pH 1.5 containing 0.5% P20. The signal from the reference channel Fc1 was subtracted from that of Fc2, Fc3 and Fc4 to correct for differences in non-specific binding to a reference surface, and a global Rmax parameter was used in the 1-to-1 binding model. The relative KD was calculated by dividing the KD of the humanised variants by that of the chimeric antibody on the same chip.
Assay [2] has as its target T1, human carbonic anhydrase IX (CAIX). The assay is described as follows: SPR (Biacore T200), multicycle kinetics; purified CHO-expressed antibody captured on Protein G chip, CAIX as analyte. (SPR reads the build-up and loss of mass on a sensor chip optically.)
Method: as §1
For assay [3] the target is unchanged. The assay is described as follows: SPR (Biacore T200), single cycle kinetics; antibody in HEK EBNA supernatant captured on Protein G chip, CAIX as analyte.
Method: All single cycle kinetic experiments were run at 25° C. with HBS-P+ running buffer (pH 7.4) (GE Healthcare, Little Chalfont, UK). For direct comparison, all antibodies were captured on a Protein G chip (GE Healthcare, Uppsala, Sweden).
Antibodies were diluted in running buffer to a final concentration of 0.5 μg/ml, based on concentrations assessed by ELISA titre. At the start of each cycle, antibodies were loaded onto Fc2, Fc3 and Fc4 of the Protein G chip (GE Healthcare, Little Chalfont, UK). IgGs were captured at a flow rate of 10 μl/min to give an immobilisation level (RL) of ˜79 RU, the theoretical value to obtain an Rmax of ˜50 RU. The surface was then allowed to stabilise. Single cycle kinetic data was obtained with Carbonic Anhydrase IX (CAIX, Stratech, Newmarket, UK) as the analyte at a flow rate of 30 μl/min to minimise any potential mass transport limitations. […] The signal from the reference channel Fc1 (no antibody) was subtracted from that of Fc2, Fc3 and Fc4 to correct for differences in non-specific binding to a reference surface. […] The association phase for the four injections of increasing concentrations of CAIX was monitored for 200 seconds each time and a single dissociation phase was measured for 300 seconds following the last injection of CAIX. Regeneration of the Protein G surface was conducted using an injection of 10 mM glycine-HCL pH 1.5 followed by an injection of 10 mM glycine-HCL pH 1.5 containing 0.5% P20.

B1: Girentuximab humanised VH4/Vκ4 IgG4 (S228P, L235E, H310A, H435Q) (antibody)
heavy: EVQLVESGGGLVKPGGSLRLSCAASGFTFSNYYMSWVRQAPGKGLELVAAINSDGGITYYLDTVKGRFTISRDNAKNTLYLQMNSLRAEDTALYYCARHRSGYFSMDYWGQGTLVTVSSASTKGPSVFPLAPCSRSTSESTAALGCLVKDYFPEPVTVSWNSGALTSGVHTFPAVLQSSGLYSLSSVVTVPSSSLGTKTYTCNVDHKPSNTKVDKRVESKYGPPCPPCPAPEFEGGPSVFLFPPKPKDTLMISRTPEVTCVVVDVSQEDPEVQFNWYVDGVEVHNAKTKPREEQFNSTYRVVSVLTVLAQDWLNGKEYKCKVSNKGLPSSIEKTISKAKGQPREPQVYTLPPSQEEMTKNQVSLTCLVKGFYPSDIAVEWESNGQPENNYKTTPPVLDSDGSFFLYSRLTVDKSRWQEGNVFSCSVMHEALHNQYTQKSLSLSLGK
light: DIQMTQSPSSLSASVGDRVTITCKASQNVVSAVAWYQQKPGQAPRLLIYSASNRYTGVPDRFSGSGSGTDFTLTISSLQAEDLADYYCQQYSNYPWTFGGGTKVEIKRTVAAPSVFIFPPSDEQLKSGTASVVCLLNNFYPREAKVQWKVDNALQSGNSQESVTEQDSKDSTYSLSSTLTLSKADYEKHKVYACEVTHQGLSSPVTKSFNRGEC
With B1, the “binding relative to VH0/Vκ0 with the same IgG backbone” value (shortened to “binding relative to VH0/Vκ0”) in assay [1] was no more than 2 fold. Moreover, the “relative KD (KD of the variant divided by KD of the chimeric antibody with the same IgG constant domain)” value in assay [2] was no more than 2 fold.

B2: Girentuximab humanised VH3/Vκ4 IgG4 (S228P, L235E, H310A, H435Q) (antibody)
heavy: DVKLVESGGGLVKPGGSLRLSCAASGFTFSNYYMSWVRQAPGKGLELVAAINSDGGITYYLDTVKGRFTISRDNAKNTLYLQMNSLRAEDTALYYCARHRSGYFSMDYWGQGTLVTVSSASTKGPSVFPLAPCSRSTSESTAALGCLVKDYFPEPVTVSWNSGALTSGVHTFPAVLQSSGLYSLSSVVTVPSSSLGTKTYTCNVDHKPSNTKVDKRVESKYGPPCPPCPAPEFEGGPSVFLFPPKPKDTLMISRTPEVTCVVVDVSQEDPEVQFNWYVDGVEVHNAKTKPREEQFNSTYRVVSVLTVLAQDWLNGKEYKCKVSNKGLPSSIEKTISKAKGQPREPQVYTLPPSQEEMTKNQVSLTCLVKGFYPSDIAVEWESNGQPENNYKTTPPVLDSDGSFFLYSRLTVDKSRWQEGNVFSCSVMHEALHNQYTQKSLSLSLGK
light: DIQMTQSPSSLSASVGDRVTITCKASQNVVSAVAWYQQKPGQAPRLLIYSASNRYTGVPDRFSGSGSGTDFTLTISSLQAEDLADYYCQQYSNYPWTFGGGTKVEIKRTVAAPSVFIFPPSDEQLKSGTASVVCLLNNFYPREAKVQWKVDNALQSGNSQESVTEQDSKDSTYSLSSTLTLSKADYEKHKVYACEVTHQGLSSPVTKSFNRGEC
Turning to B2, in assay [1], the “binding relative to VH0/Vκ0” value is no more than 2 fold. In assay [2], the “relative KD (KD of the variant divided by KD of the chimeric antibody with the same IgG constant domain)” value is no more than 2 fold.

B3: Girentuximab humanised VH1/Vκ1 IgG1 (antibody, V domains shown)
VH: DVKLVESGGGLVKPGGSLRLSCAASGFTFSNYYMSWVRQAPGKGLELVAAINSDGGITYYLDTVKGRFTISRDNAKNTLYLQMSSLKSEDTALYYCARHRSGYFSMDYWGQGTSVTVSS
VL: DIVMTQSPSFLSASVGDRVTITCKASQNVVSAVAWYQQKPGQAPKLLIYSASNRYTGVPDRFTGSGSGTDFTLTISSLQSEDLADYFCQQYSNYPWTFGGGTKVEIKR
Regarding B3, the “relative KD (against the reference chimeric VH0/Vκ0 IgG1)” value in assay [3] is no more than 2 fold.

B4: Girentuximab humanised VH3/Vκ1 IgG1 (antibody)
heavy: not shown
light: DIVMTQSPSFLSASVGDRVTITCKASQNVVSAVAWYQQKPGQAPKLLIYSASNRYTGVPDRFTGSGSGTDFTLTISSLQSEDLADYFCQQYSNYPWTFGGGTKVEIKRTVAAPSVFIFPPSDEQLKSGTASVVCLLNNFYPREAKVQWKVDNALQSGNSQESVTEQDSKDSTYSLSSTLTLSKADYEKHKVYACEVTHQGLSSPVTKSFNRGEC
With B4, the “relative KD (against the reference chimeric VH0/Vκ0 IgG1)” value in assay [3] is no more than 2 fold.

B5: Girentuximab humanised VH5/Vκ5 IgG1 (antibody, V domains shown)
VH: EVQLVESGGGLVKPGGSLRLSCAASGFTFSNYYMSWVRQAPGKGLEWVAAINSDGGITYYLDTVKGRFTISRDNAKNTLYLQMNSLRAEDTALYYCARHRSGYFSMDYWGQGTLVTVSS
VL: DIQMTQSPSSLSASVGDRVTITCKASQNVVSAVAWYQQKPGQAPRRLIYSASNRYTGVPDRFSGSGSGTDFTLTISSLQAEDLADYYCQQYSNYPWTFGGGTKVEIKR
As to B5, the binding result in assay [3] was “binds”.

B6: Girentuximab humanised VH5/Vκ3 IgG1 (antibody, V domains shown)
VH: EVQLVESGGGLVKPGGSLRLSCAASGFTFSNYYMSWVRQAPGKGLEWVAAINSDGGITYYLDTVKGRFTISRDNAKNTLYLQMNSLRAEDTALYYCARHRSGYFSMDYWGQGTLVTVSS
VL: DIQMTQSPSSLSASVGDRVTITCKASQNVVSAVAWYQQKPGQAPRLLIYSASNRYTGVPDRFSGSGSGTDFTLTISSLQAEDLADYFCQQYSNYPWTFGGGTKVEIKR
As to B6, the binding result in assay [3] was “binds”.

B7: Girentuximab humanised VH4/Vκ3 IgG1 (H310A, H435Q) (antibody)
heavy: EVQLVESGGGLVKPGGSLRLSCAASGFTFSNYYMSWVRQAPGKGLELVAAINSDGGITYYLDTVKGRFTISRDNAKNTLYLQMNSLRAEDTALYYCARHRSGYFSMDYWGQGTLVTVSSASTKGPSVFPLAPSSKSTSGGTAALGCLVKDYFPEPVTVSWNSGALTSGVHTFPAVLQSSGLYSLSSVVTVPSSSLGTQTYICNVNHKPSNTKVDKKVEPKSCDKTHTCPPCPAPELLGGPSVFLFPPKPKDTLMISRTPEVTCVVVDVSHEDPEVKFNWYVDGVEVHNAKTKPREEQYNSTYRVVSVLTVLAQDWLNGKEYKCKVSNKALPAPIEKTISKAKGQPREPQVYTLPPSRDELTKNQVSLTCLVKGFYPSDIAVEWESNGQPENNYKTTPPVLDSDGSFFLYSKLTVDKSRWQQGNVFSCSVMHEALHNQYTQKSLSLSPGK
light: DIQMTQSPSSLSASVGDRVTITCKASQNVVSAVAWYQQKPGQAPRLLIYSASNRYTGVPDRFSGSGSGTDFTLTISSLQAEDLADYFCQQYSNYPWTFGGGTKVEIKRTVAAPSVFIFPPSDEQLKSGTASVVCLLNNFYPREAKVQWKVDNALQSGNSQESVTEQDSKDSTYSLSSTLTLSKADYEKHKVYACEVTHQGLSSPVTKSFNRGEC
On to B7, for which the “binding relative to VH0/Vκ0” value in assay [1] is no more than 2 fold. Moreover, the “relative KD (KD of the variant divided by KD of the chimeric antibody with the same IgG constant domain)” value in assay [2] was no more than 2 fold.

B8: Girentuximab humanised VH1/Vκ5 IgG1 (antibody, V domains shown)
VH: DVKLVESGGGLVKPGGSLRLSCAASGFTFSNYYMSWVRQAPGKGLELVAAINSDGGITYYLDTVKGRFTISRDNAKNTLYLQMSSLKSEDTALYYCARHRSGYFSMDYWGQGTSVTVSS
VL: DIQMTQSPSSLSASVGDRVTITCKASQNVVSAVAWYQQKPGQAPRRLIYSASNRYTGVPDRFSGSGSGTDFTLTISSLQAEDLADYYCQQYSNYPWTFGGGTKVEIKR
As to B8, the binding result in assay [3] is “binds”.

B9: Girentuximab humanised VH5/Vκ2 IgG1 (antibody, V domains shown)
VH: EVQLVESGGGLVKPGGSLRLSCAASGFTFSNYYMSWVRQAPGKGLEWVAAINSDGGITYYLDTVKGRFTISRDNAKNTLYLQMNSLRAEDTALYYCARHRSGYFSMDYWGQGTLVTVSS
VL: DIVMTQSPSSLSASVGDRVTITCKASQNVVSAVAWYQQKPGQAPRLLIYSASNRYTGVPDRFTGSGSGTDFTLTISSLQAEDLADYFCQQYSNYPWTFGGGTKVEIKR
Regarding B9, in assay [3], the binding result is “binds”.

B10: Girentuximab humanised VH4/Vκ5 IgG1 (antibody)
heavy: not shown
light: DIQMTQSPSSLSASVGDRVTITCKASQNVVSAVAWYQQKPGQAPRRLIYSASNRYTGVPDRFSGSGSGTDFTLTISSLQAEDLADYYCQQYSNYPWTFGGGTKVEIKRTVAAPSVFIFPPSDEQLKSGTASVVCLLNNFYPREAKVQWKVDNALQSGNSQESVTEQDSKDSTYSLSSTLTLSKADYEKHKVYACEVTHQGLSSPVTKSFNRGEC
Consider B10, for which, in assay [3], the binding result is listed as “binds”.

B11: Girentuximab humanised VH4/Vκ1 IgG1 (antibody)
heavy: not shown
light: DIVMTQSPSFLSASVGDRVTITCKASQNVVSAVAWYQQKPGQAPKLLIYSASNRYTGVPDRFTGSGSGTDFTLTISSLQSEDLADYFCQQYSNYPWTFGGGTKVEIKRTVAAPSVFIFPPSDEQLKSGTASVVCLLNNFYPREAKVQWKVDNALQSGNSQESVTEQDSKDSTYSLSSTLTLSKADYEKHKVYACEVTHQGLSSPVTKSFNRGEC
B11: the “relative KD (against the reference chimeric VH0/Vκ0 IgG1)” value in assay [3] was no more than 2 fold.

B12: Girentuximab humanised VH5/Vκ4 IgG1 (antibody, V domains shown)
VH: EVQLVESGGGLVKPGGSLRLSCAASGFTFSNYYMSWVRQAPGKGLEWVAAINSDGGITYYLDTVKGRFTISRDNAKNTLYLQMNSLRAEDTALYYCARHRSGYFSMDYWGQGTLVTVSS
VL: DIQMTQSPSSLSASVGDRVTITCKASQNVVSAVAWYQQKPGQAPRLLIYSASNRYTGVPDRFSGSGSGTDFTLTISSLQAEDLADYYCQQYSNYPWTFGGGTKVEIKR
Regarding B12, the binding result in assay [3] was “binds”.

B13: Girentuximab humanised VH4/Vκ4 IgG1 (H310A, H435Q) (antibody)
heavy: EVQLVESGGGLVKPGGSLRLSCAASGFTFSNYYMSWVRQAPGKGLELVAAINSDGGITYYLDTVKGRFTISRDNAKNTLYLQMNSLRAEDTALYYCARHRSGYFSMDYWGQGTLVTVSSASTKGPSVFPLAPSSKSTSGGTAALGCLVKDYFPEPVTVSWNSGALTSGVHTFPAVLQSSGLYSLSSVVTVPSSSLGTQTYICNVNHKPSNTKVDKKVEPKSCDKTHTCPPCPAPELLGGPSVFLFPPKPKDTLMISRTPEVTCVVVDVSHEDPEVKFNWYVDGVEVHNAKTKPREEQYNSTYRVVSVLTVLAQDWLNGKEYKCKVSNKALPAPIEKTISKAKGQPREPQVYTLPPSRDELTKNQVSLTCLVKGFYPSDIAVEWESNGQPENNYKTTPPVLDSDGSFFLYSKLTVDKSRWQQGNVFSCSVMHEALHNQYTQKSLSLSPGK
light: DIQMTQSPSSLSASVGDRVTITCKASQNVVSAVAWYQQKPGQAPRLLIYSASNRYTGVPDRFSGSGSGTDFTLTISSLQAEDLADYYCQQYSNYPWTFGGGTKVEIKRTVAAPSVFIFPPSDEQLKSGTASVVCLLNNFYPREAKVQWKVDNALQSGNSQESVTEQDSKDSTYSLSSTLTLSKADYEKHKVYACEVTHQGLSSPVTKSFNRGEC
Consider B13, for which, in assay [1], the “binding relative to VH0/Vκ0” value was no more than 2 fold. In addition, the “relative KD (KD of the variant divided by KD of the chimeric antibody with the same IgG constant domain)” value in assay [2] is no more than 2 fold.

B14: Girentuximab humanised VH5/Vκ1 IgG1 (antibody, V domains shown)
VH: EVQLVESGGGLVKPGGSLRLSCAASGFTFSNYYMSWVRQAPGKGLEWVAAINSDGGITYYLDTVKGRFTISRDNAKNTLYLQMNSLRAEDTALYYCARHRSGYFSMDYWGQGTLVTVSS
VL: DIVMTQSPSFLSASVGDRVTITCKASQNVVSAVAWYQQKPGQAPKLLIYSASNRYTGVPDRFTGSGSGTDFTLTISSLQSEDLADYFCQQYSNYPWTFGGGTKVEIKR
Turning to B14, the binding result in assay [3] was “binds”.

B15: Girentuximab humanised VH3/Vκ5 IgG1 (antibody)
heavy: not shown
light: DIQMTQSPSSLSASVGDRVTITCKASQNVVSAVAWYQQKPGQAPRRLIYSASNRYTGVPDRFSGSGSGTDFTLTISSLQAEDLADYYCQQYSNYPWTFGGGTKVEIKRTVAAPSVFIFPPSDEQLKSGTASVVCLLNNFYPREAKVQWKVDNALQSGNSQESVTEQDSKDSTYSLSSTLTLSKADYEKHKVYACEVTHQGLSSPVTKSFNRGEC
Regarding B15, the binding result in assay [3] was “binds”.

B16: Girentuximab humanised VH1/Vκ2 IgG1 (antibody, V domains shown)
VH: DVKLVESGGGLVKPGGSLRLSCAASGFTFSNYYMSWVRQAPGKGLELVAAINSDGGITYYLDTVKGRFTISRDNAKNTLYLQMSSLKSEDTALYYCARHRSGYFSMDYWGQGTSVTVSS
VL: DIVMTQSPSSLSASVGDRVTITCKASQNVVSAVAWYQQKPGQAPRLLIYSASNRYTGVPDRFTGSGSGTDFTLTISSLQAEDLADYFCQQYSNYPWTFGGGTKVEIKR
Regarding B16, in assay [3], the “relative KD (against the reference chimeric VH0/Vκ0 IgG1)” value is no more than 2 fold.

B17: Girentuximab humanised VH1/Vκ4 IgG1 (antibody, V domains shown)
VH: DVKLVESGGGLVKPGGSLRLSCAASGFTFSNYYMSWVRQAPGKGLELVAAINSDGGITYYLDTVKGRFTISRDNAKNTLYLQMSSLKSEDTALYYCARHRSGYFSMDYWGQGTSVTVSS
VL: DIQMTQSPSSLSASVGDRVTITCKASQNVVSAVAWYQQKPGQAPRLLIYSASNRYTGVPDRFSGSGSGTDFTLTISSLQAEDLADYYCQQYSNYPWTFGGGTKVEIKR
B17: the “relative KD (against the reference chimeric VH0/Vκ0 IgG1)” value in assay [3] was no more than 2 fold.

B18: Girentuximab humanised VH1/Vκ3 IgG1 (antibody, V domains shown)
VH: DVKLVESGGGLVKPGGSLRLSCAASGFTFSNYYMSWVRQAPGKGLELVAAINSDGGITYYLDTVKGRFTISRDNAKNTLYLQMSSLKSEDTALYYCARHRSGYFSMDYWGQGTSVTVSS
VL: DIQMTQSPSSLSASVGDRVTITCKASQNVVSAVAWYQQKPGQAPRLLIYSASNRYTGVPDRFSGSGSGTDFTLTISSLQAEDLADYFCQQYSNYPWTFGGGTKVEIKR
In the case of B18, the “relative KD (against the reference chimeric VH0/Vκ0 IgG1)” value in assay [3] was no more than 2 fold.

B19: Girentuximab humanised VH3/Vκ4 IgG1 (H310A, H435Q) (antibody)
heavy: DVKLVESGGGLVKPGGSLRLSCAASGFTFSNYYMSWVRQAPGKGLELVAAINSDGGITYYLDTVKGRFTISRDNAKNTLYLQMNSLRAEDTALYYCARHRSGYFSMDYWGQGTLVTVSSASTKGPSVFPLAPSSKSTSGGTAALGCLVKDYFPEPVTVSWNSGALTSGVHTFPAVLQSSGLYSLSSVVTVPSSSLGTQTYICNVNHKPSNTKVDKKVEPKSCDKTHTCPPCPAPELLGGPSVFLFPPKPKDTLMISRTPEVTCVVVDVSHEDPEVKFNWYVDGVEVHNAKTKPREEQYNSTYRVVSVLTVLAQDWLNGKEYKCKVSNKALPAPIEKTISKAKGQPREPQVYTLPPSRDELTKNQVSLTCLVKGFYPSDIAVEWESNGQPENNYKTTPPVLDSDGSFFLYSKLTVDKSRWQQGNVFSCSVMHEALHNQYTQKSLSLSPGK
light: DIQMTQSPSSLSASVGDRVTITCKASQNVVSAVAWYQQKPGQAPRLLIYSASNRYTGVPDRFSGSGSGTDFTLTISSLQAEDLADYYCQQYSNYPWTFGGGTKVEIKRTVAAPSVFIFPPSDEQLKSGTASVVCLLNNFYPREAKVQWKVDNALQSGNSQESVTEQDSKDSTYSLSSTLTLSKADYEKHKVYACEVTHQGLSSPVTKSFNRGEC
On to B19, for which the “binding relative to VH0/Vκ0” value in assay [1] was no more than 2 fold. Further, in assay [2], the “relative KD (KD of the variant divided by KD of the chimeric antibody with the same IgG constant domain)” value is no more than 2 fold.
